Test results reported in publication PMC8910529.

Columns and labels:
His598 [1] = target: His598 (UniProt position 598, TSCGCHEAIMA); test: kinetics; conditions: 20 mM PBS; Ni-reconstituted protein (Nid site occupied, labile Nip removed with phenanthroline), turning over superoxide
His598 [2] = target: His598 (UniProt position 598, TYCGCHEAIMA); test: kinetics; conditions: 20 mM PBS; Ni-reconstituted protein (Nid site occupied, labile Nip removed with phenanthroline), turning over superoxide

With “Acetyl-coenzyme A synthase, truncated C-terminal fragment ACS-alpha15, EFG-F598H variant (Moorella thermoacetica; F598H;S594_C595insEFG)” the pKa (His598 [1]) was 6.09.
“Acetyl-coenzyme A synthase, truncated C-terminal fragment ACS-alpha15, YGP-F598H variant (Moorella thermoacetica; S594Y;Y594_C595insGP;F598H)” gave a pKa (His598 [2]) of 5.87.
